Measured values as given in patent US20120195879A1.
No end group written: not given here.

B1: aDNP 3B1 antibody (hybridoma) (antibody, human IgG2, kappa, V domains shown)
VH: QVQLQESGPGLVKPSETLSLTCTVSGGSISSYYWSWIRQPPGKGLEWIGYIYYSGNTNSNPSLKSRVTISVDTSKNQFSLKLSSVTAADTAVYYCARTYYDSSGYYYRAFDIWGQGTMVTVSS
VL: DIQMTQSPSSLSASEGDRVTITCRASQGIRNDLGWYQQKPGKAPKRLIYAASSLQSGVPLRFSGSGSGTEFTLTISSLQPEDFATYYCLQYNSYPWTFGQGTKVEIKR
B2: aDNP 3B1 antibody (recombinant, IgG2) (antibody, V domains shown)
VH: QVQLQESGPGLVKPSETLSLTCTVSGGSISSYYWSWIRQPPGKGLEWIGYIYYSGNTNSNPSLKSRVTISVDTSKNQFSLKLSSVTAADTAVYYCARTYYDSSGYYYRAFDIWGQGTMVTVSS
VL: DIQMTQSPSSLSASEGDRVTITCRASQGIRNDLGWYQQKPGKAPKRLIYAASSLQSGVPLRFSGSGSGTEFTLTISSLQPEDFATYYCLQYNSYPWTFGQGTKVEIKR
B3: aDNP 3A1 antibody (hybridoma) (antibody, human IgG2, kappa, V domains shown)
VH: QVQLQESGPGLVKPSETLSLTCTVSGGSISHYYWSWIRQPPGKGLGWIGYIYYSGSTNYNPSLKSRVTISVDTSKNQFSLKLTSVTAADTAVYYCARARGDGYNYPDAFDIWGQGTMVTVSS
VL: DIQMTQSPSSVSASVGDRVTITCRASQGISNWLAWYQRKPGKAPKLLIYAASSLQSGVPSRFSGSGSGTDFTLTISSLQPEDFAAYYCQQASSFPWTFGQGTRVEIKR

How the values were obtained:
DNP(3)-BSA (bovine) = experiment: SPR (BIAcore 2000), antibody captured on anti-human IgG Fc surface, DNP-BSA injected; apparent constants
DNP(31)-BSA (bovine) = DNP(31)-BSA (bovine) (UniProt P02769); experiment: as above
human Kv1.1 (human) = human Kv1.1 (human) (UniProt Q09470); experiment: cell-based or functional assay
human Kv1.3 (human) = human Kv1.3 (human) (UniProt P22001); experiment: cell-based or functional assay
Chain of human Kv1.3 (human) (P22001 whole entry): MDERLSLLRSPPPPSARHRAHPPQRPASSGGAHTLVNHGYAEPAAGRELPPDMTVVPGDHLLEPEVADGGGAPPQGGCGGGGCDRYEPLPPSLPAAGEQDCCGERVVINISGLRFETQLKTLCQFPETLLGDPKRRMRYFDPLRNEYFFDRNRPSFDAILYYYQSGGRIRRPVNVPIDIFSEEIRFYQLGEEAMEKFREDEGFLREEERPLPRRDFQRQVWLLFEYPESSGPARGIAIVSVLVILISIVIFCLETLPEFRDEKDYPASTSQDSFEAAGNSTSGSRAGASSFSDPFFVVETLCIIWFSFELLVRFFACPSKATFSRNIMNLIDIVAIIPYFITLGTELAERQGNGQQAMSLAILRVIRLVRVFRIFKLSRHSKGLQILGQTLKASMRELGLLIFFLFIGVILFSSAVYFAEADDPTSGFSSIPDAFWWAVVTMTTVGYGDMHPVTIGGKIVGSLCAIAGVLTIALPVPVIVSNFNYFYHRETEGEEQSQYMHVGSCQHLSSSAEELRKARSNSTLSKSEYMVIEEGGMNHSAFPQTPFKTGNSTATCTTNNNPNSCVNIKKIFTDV

Chain of DNP(31)-BSA (bovine) (P02769 25-607 limits assumed, form in doubt): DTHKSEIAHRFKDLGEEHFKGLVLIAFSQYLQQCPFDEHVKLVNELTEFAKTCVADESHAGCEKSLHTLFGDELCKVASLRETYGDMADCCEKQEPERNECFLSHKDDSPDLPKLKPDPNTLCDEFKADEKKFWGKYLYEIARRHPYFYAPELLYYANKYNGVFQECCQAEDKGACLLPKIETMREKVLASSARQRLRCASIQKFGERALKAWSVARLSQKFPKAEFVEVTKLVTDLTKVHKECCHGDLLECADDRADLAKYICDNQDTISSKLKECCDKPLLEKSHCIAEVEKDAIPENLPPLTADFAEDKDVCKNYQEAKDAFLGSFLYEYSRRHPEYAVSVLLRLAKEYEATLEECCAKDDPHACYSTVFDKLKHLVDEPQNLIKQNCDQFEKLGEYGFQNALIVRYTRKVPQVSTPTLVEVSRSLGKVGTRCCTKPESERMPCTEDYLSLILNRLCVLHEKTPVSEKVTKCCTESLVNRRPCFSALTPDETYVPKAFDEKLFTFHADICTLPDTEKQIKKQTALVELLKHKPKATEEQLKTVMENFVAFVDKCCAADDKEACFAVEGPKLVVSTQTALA
Chain of DNP(3)-BSA (bovine) (P02769 25-607 limits assumed, form in doubt): as above
Chain of human Kv1.1 (human) (Q09470 whole entry): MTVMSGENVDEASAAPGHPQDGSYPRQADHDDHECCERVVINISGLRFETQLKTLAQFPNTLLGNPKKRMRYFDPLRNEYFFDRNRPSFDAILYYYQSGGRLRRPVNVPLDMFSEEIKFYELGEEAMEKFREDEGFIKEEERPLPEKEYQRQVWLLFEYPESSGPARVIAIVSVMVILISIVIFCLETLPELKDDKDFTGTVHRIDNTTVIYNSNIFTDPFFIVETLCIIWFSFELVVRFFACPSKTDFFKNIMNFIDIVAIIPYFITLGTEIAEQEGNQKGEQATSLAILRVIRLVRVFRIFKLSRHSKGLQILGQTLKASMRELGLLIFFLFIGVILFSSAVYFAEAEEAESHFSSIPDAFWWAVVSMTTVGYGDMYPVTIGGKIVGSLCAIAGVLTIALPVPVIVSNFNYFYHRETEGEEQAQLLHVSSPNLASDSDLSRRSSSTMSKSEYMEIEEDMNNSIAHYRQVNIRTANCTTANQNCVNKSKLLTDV

Binder	Kd (DNP(3)-BSA (bovine))	koff (DNP(3)-BSA (bovine))	kon (DNP(3)-BSA (bovine))	Kd (DNP(31)-BSA (bovine))	koff (DNP(31)-BSA (bovine))	kon (DNP(31)-BSA (bovine))	Kv1.1 (PX) IC50 (human Kv1.1 (human))	Kv1.1/Kv1.3 Selectivity Ratio by PX (human Kv1.3 (human))	Kv1.3 (PX) IC50 (human Kv1.3 (human))	Potency Relative to ShK (WB, IL2) (human Kv1.3 (human))
B1	3 nM	0.00036 s⁻¹	140000 M⁻¹ s⁻¹	0.2 nM	5.8e-05 s⁻¹	370000 M⁻¹ s⁻¹				
B2				0.7 nM	0.00031 s⁻¹	420000 M⁻¹ s⁻¹				
Fc-GGGGSGGGGSRSCIDTIPKSRCTAFQCKHSMKYRLSFCRKTCGTC (Fc fusion, ends and bridges not checked; also: homodimer via Fc) [Bivalent Fc-L10-ShK[1-35] homodimer]							0.067 nM	4.47	0.015 nM	5.76
Fc-GGGGSGGGGSSCIDTIPKSRCTAFQCKHSMKYRLSFCRKTCGTC (Fc fusion, ends and bridges not checked; also: homodimer via Fc) [Bivalent Fc-L10-ShK[2-35] homodimer]							0.411 nM	3.54	0.116 nM	8.73
B3	526 nM	0.00065 s⁻¹	1200 M⁻¹ s⁻¹	9 nM	0.00031 s⁻¹	34000 M⁻¹ s⁻¹				
